According to PMC8982406:

T1: full-length RLIM protein (wild type; mapping and mutation co-IPs), Q9NVW2
T1 chain: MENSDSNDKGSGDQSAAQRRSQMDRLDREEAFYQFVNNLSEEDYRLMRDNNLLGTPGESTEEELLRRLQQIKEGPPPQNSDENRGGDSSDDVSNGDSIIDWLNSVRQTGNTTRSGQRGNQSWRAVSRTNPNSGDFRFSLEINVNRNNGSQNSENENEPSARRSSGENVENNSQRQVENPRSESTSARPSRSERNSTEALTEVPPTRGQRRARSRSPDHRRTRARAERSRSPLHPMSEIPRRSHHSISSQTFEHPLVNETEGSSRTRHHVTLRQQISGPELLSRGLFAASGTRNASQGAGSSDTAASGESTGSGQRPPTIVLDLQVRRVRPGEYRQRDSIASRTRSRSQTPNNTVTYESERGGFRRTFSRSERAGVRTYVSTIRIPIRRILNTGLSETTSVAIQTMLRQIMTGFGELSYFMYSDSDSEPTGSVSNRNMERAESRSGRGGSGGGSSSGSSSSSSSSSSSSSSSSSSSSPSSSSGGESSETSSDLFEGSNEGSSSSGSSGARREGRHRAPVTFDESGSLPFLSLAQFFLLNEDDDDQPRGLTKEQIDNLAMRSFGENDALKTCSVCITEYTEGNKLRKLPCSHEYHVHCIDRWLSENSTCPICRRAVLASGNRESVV


Key:
[1] = target: full-length RLIM protein (wild type; mapping and mutation co-IPs) (UniProt Q9NVW2); experiment: co-IP (IP: FLAG, IB: myc), blot quantification; conditions: ZC4H2-myc + RLIM-FLAG, MG132 +; parent: 1.00
[2] = target: T1, full-length RLIM protein (wild type; …); experiment: co-IP (IP: FLAG, IB: myc), blot quantification; conditions: chain shown with the change; ZC4H2-myc + RLIM-FLAG, MG132 +; parent: 1.00

| Molecule | ratio to parent [1] | ratio to parent [2] |
| --- | --- | --- |
| ZC4H2 (wild type; mapping and mutation co-IPs), Q9NQZ6 R213W (protein) MADEQEIMCKLESIKEIRNKTLQMEKIKARLKAEFEALESEERHLKEYKQEMDLLLQEKMAHVEELRLIHADINVMENTIKQSENDLNKLLESTRRLHDEYKPLKEHVDALRMTLGLQRLPDLCEEEEKLSLDYFEKQKAEWQTEPQEPPIPESLAAAAAAAQQLQVARKQDTRQTATFRQQPPPMKACLSCHQQIHRNAPICPLCKAKSRSWNPKKPKRKQDE | – | 0.19 |
| ZC4H2 (wild type; mapping and mutation co-IPs), Q9NQZ6 R198Q (protein) MADEQEIMCKLESIKEIRNKTLQMEKIKARLKAEFEALESEERHLKEYKQEMDLLLQEKMAHVEELRLIHADINVMENTIKQSENDLNKLLESTRRLHDEYKPLKEHVDALRMTLGLQRLPDLCEEEEKLSLDYFEKQKAEWQTEPQEPPIPESLAAAAAAAQQLQVARKQDTRQTATFRQQPPPMKACLSCHQQIHQNAPICPLCKAKSRSRNPKKPKRKQDE | – | 0.15 |

Results, then the molecule that gave them:

| ratio to parent [1] | ratio to parent [2] | Molecule |
| --- | --- | --- |
| 0.13 | – | ZC4H2 (wild type; mapping and mutation co-IPs) (from UniProt Q9NQZ6) A201S |
| – | 0.18 | ZC4H2 (wild type; mapping and mutation co-IPs), Q9NQZ6 A200V (protein) MADEQEIMCKLESIKEIRNKTLQMEKIKARLKAEFEALESEERHLKEYKQEMDLLLQEKMAHVEELRLIHADINVMENTIKQSENDLNKLLESTRRLHDEYKPLKEHVDALRMTLGLQRLPDLCEEEEKLSLDYFEKQKAEWQTEPQEPPIPESLAAAAAAAQQLQVARKQDTRQTATFRQQPPPMKACLSCHQQIHRNVPICPLCKAKSRSRNPKKPKRKQDE |
| – | 1.2 | ZC4H2 (wild type; mapping and mutation co-IPs), Q9NQZ6 V63L (protein) MADEQEIMCKLESIKEIRNKTLQMEKIKARLKAEFEALESEERHLKEYKQEMDLLLQEKMAHLEELRLIHADINVMENTIKQSENDLNKLLESTRRLHDEYKPLKEHVDALRMTLGLQRLPDLCEEEEKLSLDYFEKQKAEWQTEPQEPPIPESLAAAAAAAQQLQVARKQDTRQTATFRQQPPPMKACLSCHQQIHRNAPICPLCKAKSRSRNPKKPKRKQDE |
